Laboratory results from article PMC6325770.

Target: enhanced green fluorescent protein-labelled G-protein-coupled receptor kinase-interacting protein 1 (GIT1) (UniProt Q9Y2X7)
Experiment: MST; enhanced green fluorescent protein-labelled GIT1 in human embryonic kidney 293 cell lysate at constant 20 nmol/L, serial dilution of purified CLIC4; Monolith NT.115

Sequence of UniProt Q9Y2X7 (Q9Y2X7 whole entry): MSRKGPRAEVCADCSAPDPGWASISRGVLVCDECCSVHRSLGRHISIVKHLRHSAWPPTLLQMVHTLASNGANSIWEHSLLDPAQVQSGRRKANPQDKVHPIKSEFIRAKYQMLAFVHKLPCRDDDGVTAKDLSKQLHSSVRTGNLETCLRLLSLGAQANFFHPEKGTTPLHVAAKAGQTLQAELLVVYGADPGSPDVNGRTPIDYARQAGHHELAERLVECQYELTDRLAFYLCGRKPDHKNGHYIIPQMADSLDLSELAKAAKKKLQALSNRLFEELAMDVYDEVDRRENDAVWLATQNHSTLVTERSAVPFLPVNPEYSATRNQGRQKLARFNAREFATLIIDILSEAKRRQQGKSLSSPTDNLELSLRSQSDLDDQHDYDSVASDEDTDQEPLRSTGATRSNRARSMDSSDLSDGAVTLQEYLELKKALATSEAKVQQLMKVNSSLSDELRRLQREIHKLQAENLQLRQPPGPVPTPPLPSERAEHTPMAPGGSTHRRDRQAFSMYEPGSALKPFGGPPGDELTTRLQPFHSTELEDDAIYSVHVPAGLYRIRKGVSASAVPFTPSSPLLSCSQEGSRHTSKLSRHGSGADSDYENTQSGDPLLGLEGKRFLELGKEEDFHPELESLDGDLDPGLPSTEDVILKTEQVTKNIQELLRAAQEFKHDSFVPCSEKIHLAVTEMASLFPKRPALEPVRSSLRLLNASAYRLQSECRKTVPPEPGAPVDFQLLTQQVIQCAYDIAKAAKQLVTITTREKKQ

purified CLIC4 (ab104744; Abcam) (from UniProt Q9Y696 1-253) (natural protein)
Kd: 1800 nM
